Data from patent US20250179187A1, “ANTI PD-L2 ANTIBODY” (REJUVERON SENESCENCE THERAPEUTICS AG, priority 2022, published 2025).
Like-named read-outs stand apart in the source and are kept apart here.

What was measured:
[1] = target: human PD-L2 on CHO-K1 cells over-expressing hPDL2-GFP (human) (UniProt Q9BQ51); assay: flow cytometry on CHO-K1 cells expressing hPD-L2, median fluorescence
[2] = target: human PD-L2 on CHO-K1 cells over-expressing hPDL2-GFP (human) (UniProt Q9BQ51); assay: flow cytometry blocking assay: antibody titrated against recombinant hPD-1 (constant 15 micrograms/mL) binding to CHO-K1 cells expressing hPD-L2; signal falls with the antibody; column head on the sheet is EC50
[3] = target: human PD-L2 on CHO-K1 cells of the Promega PD-1/PD-L2 blockade bioassay (human) (UniProt Q9BQ51)
Sequence of human PD-L2 on CHO-K1 cells of the Promega PD-1/PD-L2 blockade bioassay (human) (Q9BQ51 20-273): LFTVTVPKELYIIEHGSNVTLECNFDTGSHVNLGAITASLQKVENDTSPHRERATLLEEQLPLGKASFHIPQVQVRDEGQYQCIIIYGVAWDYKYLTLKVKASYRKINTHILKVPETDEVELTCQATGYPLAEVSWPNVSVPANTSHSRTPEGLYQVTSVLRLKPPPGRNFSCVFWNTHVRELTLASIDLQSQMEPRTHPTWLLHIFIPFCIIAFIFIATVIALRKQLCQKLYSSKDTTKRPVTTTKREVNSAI

[4] = target: human PD-L2 on CHO-K1 cells over-expressing hPDL2-GFP (human) (UniProt Q9BQ51); assay: binding to cellular PDL2 (FIG. 1A by the text; flow cytometry on CHO-K1 cells expressing hPD-L2)
[5] = target: mouse PD-L2 on CHO-K1 cells over-expressing mPD-L2 GFP (mouse) (UniProt Q9WUL5); assay: flow cytometry on CHO-K1 cells overexpressing mPD-L2, mean fluorescence
Sequence of mouse PD-L2 on CHO-K1 cells over-expressing mPD-L2 GFP (mouse) (Q9WUL5 20-247): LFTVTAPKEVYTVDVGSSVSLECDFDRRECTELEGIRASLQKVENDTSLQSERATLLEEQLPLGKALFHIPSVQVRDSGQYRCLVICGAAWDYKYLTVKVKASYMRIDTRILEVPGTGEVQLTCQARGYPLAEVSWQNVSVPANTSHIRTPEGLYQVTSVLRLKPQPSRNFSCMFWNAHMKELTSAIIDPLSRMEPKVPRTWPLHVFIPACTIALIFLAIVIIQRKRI

[6] = target: human PD-L2 on CHO-K1 cells of the Promega PD-1/PD-L2 blockade bioassay (human) (UniProt Q9BQ51); remark: listed apart in the source

Sequence of human PD-L2 on CHO-K1 cells over-expressing hPDL2-GFP (human) (Q9BQ51 20-273): as the sequence (Q9BQ51 20-273) above

Row | EC50 [1] | EC50 [2] | EC50 (PD-1/PD-L2 blockade reporter assay, luminescence) [3] | EC50 [4] | EC50 [5] | EC50 (PD-1/PD-L2 blockade reporter assay, luminescence) [6] | Substance
1 | 1.18 nM | 1.14 nM | 1.78 nM | 0.7 nM |  |  | 24F.10C12 (commercially available anti-PD-L2 monoclonal antibody)
2 |  |  |  |  | 0.64 nM |  | TY25 (antibody)
3 | 1.65 nM | 2.99 nM | 1.71 nM | 0.618 nM |  | 1.32 nM | MIH-18 (commercially available anti-PD-L2 monoclonal antibody)
